Columns and labels:
[1] = tested on: eYFP-S1PDZ1-CASK in MCF-7 cells; experiment: Pharmacological treatment, plasma membrane localization of eYFP-S1PDZ1-CASK; assay type: cell-based
[2] = tested on: eYFP-S1PDZ1-MPDZ_7 in MCF-7 cells; experiment: Pharmacological treatment, plasma membrane localization of eYFP-S1PDZ1-MPDZ_7; assay type: cell-based; conditions: ionomycin 10 µM
[3] = tested on: eYFP-S1PDZ1-MAGI3_3 and eYFP-S1PDZ1-IL16_1 in MCF-7 cells; experiment: Pharmacological treatment, peroxisomal enrichment of eYFP-S1PDZ1-MAGI3_3 and eYFP-S1PDZ1-IL16_1; assay type: cell-based; conditions: wortmannin 500 nM, LY294002 50 µM, ionomycin 10 µM
[4] = SPR equilibrium binding of his-tagged PDZ domains to PtdIns(4,5)P2 liposomes; conditions: SPR equilibrium analysis, 5% PtdIns(4,5)P2 in DOPC liposomes, 25°C, pH 7.2; read-out: KD app PtdIns(4,5)P2
[5] = SPR equilibrium binding of his-tagged PDZ domains to various PtdInsPs species; conditions: recombinant PDZ domain over PtdInsPs liposomes
[6] = SPR binding to PtdIns(4,5)P2 in composite liposomes mimicking biological membrane; conditions: 30% PC, 20% PS, 40% PE and 5% PtdIns(4,5)P2
Text: (§1) As an alternative in vitro approach we performed lipid blot assays using commercially available membranes pre-spotted with PtdIns, PtdIns4P, PtdIns(4,5)P2 and PtdIns(3,4,5)P3 as well as other abundant lipids (Fig. 4B–C). IL16_3 and PDZD2_3, were excluded from this analysis due to their high binding to the blank immobilized spot. […] Other PtdInsPs-PDZ interactions were confirmed. Discrepancy between SPR and lipid blot approaches can be easily explained by the fact that the latter method is highly koff-dependent. […] We therefore performed SPR experiments with five selected PDZ domains (CASK, DFNB31_1, MAGI1_6, MAGI3_3 and SLC9A3R2_1) and two selected lipids, PS and PE, embedded in DOPC liposomes (10% PS or 40% PE in a DOPC using 100% DOPC as reference). […] We have previously reported that weak electrostatic interactions with PS reinforce the interactions of the second PDZ domain of Polychaetoid with PtdIns(4,5)P2 containing liposomes. We therefore investigated, for the same five PDZ domains, how the apparent PtdIns(4,5)P2 affinities were affected by presenting the lipid in the background of liposomes mimicking biological membrane lipid composition ([…], 20% PS, 40% PE and 5% PtdIns(4,5)P2).
(§2) SPR experiments were performed in a BiacoreT100 (GE Healthcare) at 25°C in 25 mM HEPES, 150 mM NaCl, pH 7.2 and 1 mM beta-mercaptoethanol with a flow rate of 30 µl/min. […]

[7] = SPR binding to PS liposomes; conditions: 10% PS in DOPC, 100% DOPC as reference
Text: as §1, §2

[8] = SPR binding to PE liposomes; conditions: 40% PE in DOPC, 100% DOPC as reference
Text: as §1, §2

[9] = target: C-terminal peptide of usher (FTDTHL); experiment: Equilibrium peptide binding titration followed by intrinsic tryptophan fluorescence; conditions: Y167W mutation introduced as fluorescent probe; protein 3 µM; 25°C, pH 7.2
Text: Given the overall low PtdInsPs specificities, and often modest PtdInsPs affinities, it is unlikely that PtdInsPs bindings alone target the PDZ domains to their defined subcellular compartments. Plausibly, peptide interactions are also involved in controlling the subcellular targeting. To address the interplay between PtdInsPs and peptide-binding we chose DFNB31_1 and CASK as models, taking two of the PDZ domains with well-defined cognate peptides. Cognate peptide ligands were the C-terminal peptides of usher (FTDTHL) for DFNB31_1 [50] and the TKEFYA peptide of syndecan-2 for CASK [51]. We measured the PDZ-peptide affinities by a fluorescence-based approach (Fig. 4E), by engineering Trp into the PDZ scaffolds and following the interactions by changes in intrinsic fluorescence, a strategy previously established for other PDZ domains (KD-values: DFNB31_1/Y167W for FTDTHL 46±6 µM; CASK/I157W for TKEFYA 280±20 µM), [52]. We then determined the apparent PtdIns(4,5)P2 affinities in presence of a (close to) saturating concentration of respective peptide (1 mM). The FTDTHL peptide appeared to compete for DFNB31_1-PtdIns(4,5)P2 interactions (KD ^PtdIns(4,5)P2 in presence of peptide >30 µM, Fig. 4F), which might indicate overlapping binding sites. […] We have previously reported on competitive binding by peptide and PtdIns(4,5)P2 with CASK [13]. However, in these experiments the peptide was linked to sepharose beads and PtdIns(4,5)P2 was present on micelles, which made it more difficult for the PDZ domain to simultaneously interact with the two ligands.
Spectrofluorimetric measurements were performed at 25°C in 25 mM HEPES, 150 mM NaCl, pH 7.2 and 1 mM beta-mercaptoethanol in a Carry Eclipse Spectrofluorimeter (Varian). The peptides corresponded to the C-termini of syndecan-2 (TKEFYA) and usher (FTDTHL) and were of high purity (purity >95%, GeneCust), and the experiment were performed and analyzed as described previously. Urea induced equilibrium unfolding experiments were performed using 1 µM of proteins (excitation 280 nm emission 320–380 nm) and the data fitted by a standard two-state model.

With `C[C@H](CCC(=O)O)C[C@H](C)C[C@H](C)C(=O)/C=C(\O)[C@H](C)C[C@H](C)C/C=C/[C@@H](C)[C@@H](O)[C@@H](C)[C@@H](O)C[C@@H]1CC[C@@](C)([C@H]2CC[C@@](C)([C@@H](C)O)O2)O1` [ionomycin] as the molecule, how does the “plasma membrane localization of eYFP-S1PDZ1-CASK upon treatment” value [1] read?
The value was “loss of membrane localization”.

What about the “plasma membrane localization of eYFP-S1PDZ1-MPDZ_7 upon treatment” value [2] of the same molecule?
The value was “not”.

And the “peroxisomal enrichments of eYFP-S1PDZ1-MAGI3_3 and eYFP-S1PDZ1-IL16_1 upon treatment” value [3]?
The value was “did not alter”.

B1: DFNB31_1: recombinant his-tagged first PDZ domain of human DFNB31 (protein)
chain: GEVRLVSLRRAKAHEGLGFSIRGGSEHGVGIYVSLVEPGSLAEKEGLRVGDQILRVNDKSLARVTHAEAVKALKGSKKLVLSVYSAGRI
modifications: left off: His6, N-terminal, state not stated
notes: recombinant his-tagged first PDZ domain of human DFNB31
Which Kd [4] does the source give for B1 here?
The Kd was 7.8 ± 2 µM.

What about the “PtdInsPs binding in vitro, in words” value [5] of the same molecule?
The value was “high-affinities”.

And the Kd [6]?
Its Kd is 2700 ± 1000 nM.

And the “PS binding, in words” value [7]?
Its value is “low affinity interactions”.

And the “PE binding, in words” value [8]?
Its value is “did not observe any detectable PDZ-PE binding”.

What about the Kd [9] of the same molecule?
Its Kd is 46 ± 6 µM.
